For data set [1], the target named is T1, Trx::ZmOrphan94 (Zea mays B73, UniProt C0P6E9 1-264).
T1 sequence: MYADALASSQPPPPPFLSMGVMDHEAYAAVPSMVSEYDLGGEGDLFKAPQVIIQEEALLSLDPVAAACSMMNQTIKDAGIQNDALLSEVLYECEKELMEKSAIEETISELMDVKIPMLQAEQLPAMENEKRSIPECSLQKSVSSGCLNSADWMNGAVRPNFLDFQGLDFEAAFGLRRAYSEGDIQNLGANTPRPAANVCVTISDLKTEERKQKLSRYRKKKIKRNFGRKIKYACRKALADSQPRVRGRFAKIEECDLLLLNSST
Description: EMSA; strongest band; out-competed by unlabelled WT probe (400x); EMSA: 1 ug protein, 50 fmol probe in 10 ul; 10 mM HEPES pH 7.9, 40 mM KCl, 1 mM EDTA, 1 mM DTT, 50 ng herring sperm DNA, 15 ug BSA, 10% glycerol, 1 h on ice; 5% native PAGE. To be noted: protein: recombinant; tags: N-terminal Trx (pET32a); label: 32P; 5' overhang 4 nt on each strand as annealed.

Data set [2] has as its target T1, Trx::ZmOrphan94. Briefly: EMSA; out-competed by unlabelled WT probe (400x); EMSA: 1 ug protein, 50 fmol probe in 10 ul; 10 mM HEPES pH 7.9, 40 mM KCl, 1 mM EDTA, 1 mM DTT, 50 ng herring sperm DNA, 15 ug BSA, 10% glycerol, 1 h on ice; 5% native PAGE. The settings on record: protein: recombinant; tags: N-terminal Trx (pET32a); label: 32P; 5' overhang 4 nt on each strand as annealed.

B1: 5U-ZmPEPC1-3 (dsDNA)
DNA 1: ACGTGTCCCGTGCACAGCCACACACACACCCGCCCG
DNA 2: ATCACGGGCGGGTGTGTGTGTGGCTGTGCACGGGAC
With B1, the binding result with Trx::ZmOrphan94 [1] is “binds”.

B2: 5U-ZmPEPC1-1 (dsDNA)
DNA 1: ACGTGGCGGTTACCGCCGATCACATGCCCAAGGCCG
DNA 2: ACATCGGCCTTGGGCATGTGATCGGCGGTAACCGCC
As for B2, in the data set with Trx::ZmOrphan94 [2], the binding result is on record as “binds”.

B3: 5U-ZmPEPC1-2 (dsDNA)
DNA 1: ACGTGCGAGGGCCGCCCGTTCCCGTGCACAGCCACG
DNA 2: ATCACGTGGCTGTGCACGGGAACGGGCGGCCCTCGC
On to B3, for which the binding result with Trx::ZmOrphan94 [2] is “binds”.
